Measurements taken from patent publication US20210363247A1, “Novel Treatments of Glaucoma” (The Regents of the University of California, priority 2019, published 2021).
Entries after “also recorded” stand apart in the source; their conditions may differ.

What was measured:
mouse = mouse model, inhibitor delivered locally by eye drops, IOP; assay type: in vivo
Source text: (§1) These protocols employ two different antibodies: anti-human WNTSA antibody produced in rabbit purified immunoglobulin, buffered aqueous solution (Sigma-Aldrich SAB1411396), and an anti-human WNTSA monoclonal antibody produced in mouse clone 6F2, ascites fluid (Sigma-Aldrich SAB5300183), although other Wnt5a antibodies can be used, e.g. Hanaki et al., Mol Cancer Ther 11(2) February 2012; He et al. Oncogene. 2005, 24 (18): 3054-3058.
(§2) These protocols employ a t-butyloxycarbonyl-modified Wnt5a-derived hexapeptide (Box5) that functions as a potent antagonist of Wnt5a (Jenei, et la., PNAS USA, 106 (46), 19473-8), and 6,7-dihydro -10alpha-hydroxy radicicol, a potent WNT-5A expression inhibitor with relatively low toxicity and excellent stability (Shinonaga et al. Bioorg Med Chem. 2009 Jul. 1; 17(13):4622-35).
(§3) These protocols employed OMP18R5 (a humanized monoclonal antibody that binds FZD5), Abcam ab52565 (a monoclonal antibody that binds FZD2), and cirmtuzumab (a humanized IgG1 anti-ROR1 monoclonal antibody), though an anti-human FZD5, FZD2 siRNA and ROR1 polyclonal and monoclonal antibodies, are commercially available from multiple sources, e.g. ThermoFisher Scientific, Abcam, SigmaAldrich, etc.); see also U.S. Pat. No. 9,573,998 for antibodies against human FZD5.

rabbit = rabbit model, inhibitor delivered locally by eye drops, IOP; assay type: in vivo
Source text: as §1, §2, §3

[1] = test system: human Schlemm's canal cells; assay: tube formation of human Schlemm's canal cells; assay type: cell-based; conditions: in vitro; vs scrambled siRNA, isotype control or vehicle control of ethanol (0.07%); *P<0.05
Source text: FIGS. 1A-G. (A-C) Real-time quantitative PCR data showing the expression levels of FZD5, ROR1 and FZD2 in human Schlemm's canal cells are regulated by sheer stress (A), Wnt5a intervention by small interference RNAs (siRNAs) (B), or Wnt5a stimulation (C). (D and E) Summarized data showing that tube formation of human Schlemm's canal cells was inhibited by FZD5 siRNA (D) or ROR1 siRNA (E), respectively. Scrambled siRNA was used as negative control. *P<0.05. (F and G) Representative images showing that tube formation of human Schlemm's canal cells are regulated by the intervention of FZD5 (F) or ROR1 (G) via siRNAs. *P<0.05. […]
(§4) In exemplary models vivo data were obtained using well-established mouse model of glaucoma with laser-induced occlusion of episcleral veins (Zhang L, et al. Establishment and Characterization of an Acute Model of Ocular Hypertension by Laser-Induced Occlusion of Episcleral Veins. Invest Ophthalmol Vis Sci. 2017 Aug. 1; 58(10):3879-3886). […] Central corneal thickness and RNFL were measured on Day 3 or Day 7 by in vivo OCT, respectively. […]

[2] = test system: human Schlemm's canal cells; assay: real-time quantitative PCR of expression levels in human Schlemm's canal cells; assay type: cell-based
Source text: FIGS. 1A-G. (A-C) Real-time quantitative PCR data showing the expression levels of FZD5, ROR1 and FZD2 in human Schlemm's canal cells are regulated by sheer stress (A), Wnt5a intervention by small interference RNAs (siRNAs) (B), or Wnt5a stimulation (C). (D and E) Summarized data showing that tube formation of human Schlemm's canal cells was inhibited by FZD5 siRNA (D) or ROR1 siRNA (E), respectively. Scrambled siRNA was used as negative control. *P<0.05. (F and G) Representative images showing that tube formation of human Schlemm's canal cells are regulated by the intervention of FZD5 (F) or ROR1 (G) via siRNAs. *P<0.05.
(§5) FIGS. 2A-C. (A-C, top panels) Real-time quantitative PCR data showing the expression levels of PLCB1, PPP3R1 and NFATC3 in human Schlemm's canal cells are regulated by sheer stress (A), Wnt5a intervention via siRNAs (B), or Wnt5a stimulation (C). (A-C, lower panels) Representative images and summarized data of Fluo-4 staining showing intracellular calcium signal is regulated by sheer stress (A), Wnt5a intervention via siRNAs (B), or Wnt5a stimulation (C). Green: Fluo-4, blue: DAPI nuclear staining *P<0.05.
FIGS. 3A-B. Real-time quantitative PCR data showing the expression of CAMK2D in human Schlemm's canal cells is regulated by sheer stress (A), or wnt5a stimulation (B), respectively. *P<0.05.
as §4, with “58(10):3879-3886). Intraocular hypertension is introduced in the right eyes (OD) of the mice with the left eyes (OS) as controls.” for “58(10):3879-3886).”

[3] = test system: human Schlemm's canal cells; assay: Fluo-4 staining of intracellular calcium signal; assay type: cell-based
Source text: as §5
In exemplary models vivo data were obtained using well-established mouse model of glaucoma with laser-induced occlusion of episcleral veins (Zhang L, et al. Establishment and Characterization of an Acute Model of Ocular Hypertension by Laser-Induced Occlusion of Episcleral Veins. Invest Ophthalmol Vis Sci. 2017 Aug. 1; 58(10):3879-3886). Intraocular hypertension is introduced in the right eyes (OD) of the mice with the left eyes (OS) as controls. In these examples, the inhibitors or their controls were delivered daily to the right eyes via local administration of subconjunctival injection, starting from Day 1 after the induction of intraocular hypertension in the right eyes of the mice. Left eyes were used as controls. Central corneal thickness and RNFL were measured on Day 3 or Day 7 by in vivo OCT, respectively. All in vitro data were collected from human Schlemm's cells in culture.

Molecule: 6,7-dihydro -10alpha-hydroxy radicicol
- therapy for pathogenic IOP (mouse): effective therapies
- therapy for pathogenic IOP (rabbit): effective therapies

Molecule: O=C(OC[C@H]1O[C@@H](OC(=O)c2cc(O)c(O)c(O)c2)[C@H](OC(=O)c2cc(O)c(O)c(O)c2)[C@@H](OC(=O)c2cc(O)c(O)c(O)c2)[C@@H]1OC(=O)c1cc(O)c(O)c(O)c1)c1cc(O)c(O)c(O)c1 [DB03208, Beta-1,2,3,4,6-Penta-O-Galloyl-D-Glucopyranose]
- tube formation of human Schlemm's canal cells [1]: inhibited

B1: Wnt5a: Wnt5a used to stimulate human SC cells (protein, UniProt P41221 62-380, looked up)
Protein Wnt-5a: IIGAQPLCSQLAGLSQGQKKLCHLYQDHMQYIGEGAKTGIKECQYQFRHRRWNCSTVDNTSVFGRVMQIGSRETAFTYAVSAAGVVNAMSRACREGELSTCGCSRAARPKDLPRDWLWGGCGDNIDYGYRFAKEFVDARERERIHAKGSYESARILMNLHNNEAGRRTVYNLADVACKCHGVSGSCSLKTCWLQLADFRKVGDALKEKYDSAAAMRLNSRGKLVQVNSRFNSPTTQDLVYIDPSPDYCVRNESTGSLGTQGRLCNKTSEGMDGCELMCCGRGYDQFKTVQTERCHCKFHWCCYVKCKKCTEIVDQFVCK
- expression levels of FZD5, ROR1 and FZD2 [2]: regulated; also recorded: increased
- expression levels of PLCB1, PPP3R1 and NFATC3 [2]: regulated
- expression of CAMK2D [2]: regulated
- intracellular calcium signal [3]: regulated
